The supplement of paper PMC10724198
± gives the standard deviation of the averaged measurements.

Test system: Saccharomyces cerevisiae
Experiment: protein stability index of tFT-peptide fusion (C-terminal peptide) (PSI (0-1 scale)); higher = more stable (slower turnover)
Details: genetic background: cdc53-1; temperature: 37 C
Procedure: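 MPS profiling in S. cerevisiae of the tFT-X12 degron library: putative degron peptides plus stable controls, 12 aa, fused to the C-terminus of a sfGFP-mCherry timer. Cells are FACS-sorted into 8 mCherry/sfGFP bins and deep-sequenced. PSI runs from 0 (unstable) to 1 (stable). Backgrounds are wild type, das1Δ and doa10Δ at 30 °C, and wild type, das1Δ, cdc34-1 and cdc53-1 at 37 °C; 2-3 technical replicates each.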
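Note: PSI is a weighted mean of sequencing reads over stability bins, variants kept only with over 10 reads, mCherry proximal and sfGFP distal, peptide attached via GGGS linker.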

Question: With AFRRFLLYCRFI as the sequence, how does the protein stability index read?
Answer: 0.378 ± 0.0056

Question: For AIPRWLALLVAH, which protein stability index is on record?
Answer: 0.381 ± 0.0079

Question: How did the protein stability index turn out when ALWRAWLRLRIW was run?
Answer: 0.591 ± 0.03

Question: Which protein stability index does the source give for AQLVYVITAVRT here?
Answer: 0.458 ± 0.024

Question: How did the protein stability index turn out when ARLTNYFVEWLS was run?
Answer: 0.757 ± 0.012

Question: For ASAYCCMITRLN, which protein stability index is on record?
Answer: 0.574 ± 0.086

Question: With ASGVFSRLVLVS as the sequence, how does the protein stability index read?
Answer: 0.335 ± 0.016

Question: With ASPLRLFIPFLF as the sequence, how does the protein stability index read?
Answer: 0.76 ± 0.017

Question: With AWLWCVCWSIMR as the sequence, how does the protein stability index read?
Answer: 0.414 ± 0.013

Question: AYFPSQRVHHLM was tested. Which protein stability index did it give?
Answer: 0.706 ± 0.066

Question: CACAVPFLLLFF was tested. Which protein stability index did it give?
Answer: 0.519 ± 0.017

Question: Which protein stability index does the source give for CCSRYLSNLCPI here?
Answer: 0.751 ± 0.036

Question: CDSRIRKIWSYL was tested. Which protein stability index did it give?
Answer: 0.883 ± 0.019

Question: CFFPLFLCTAFC was tested. Which protein stability index did it give?
Answer: 0.4713 ± 0.0024

Question: With CFSVFSVLCFFV as the sequence, how does the protein stability index read?
Answer: 0.6301 ± 0.0018

Question: How did the protein stability index turn out when CFVFYALFGFAV was run?
Answer: 0.463 ± 0.027

Question: With CLISILLFLCFT as the sequence, how does the protein stability index read?
Answer: 0.509 ± 0.074

Question: For CLLVCCCFYRNV, which protein stability index is on record?
Answer: 0.558 ± 0.0066

Question: With CLVKIVIFFLFS as the sequence, how does the protein stability index read?
Answer: 0.326 ± 0.016

Question: How did the protein stability index turn out when CNIYVLIIIKKY was run?
Answer: 0.298 ± 0.036

Question: How did the protein stability index turn out when CPPPCPLYMLLC was run?
Answer: 0.614 ± 0.041

Question: How did the protein stability index turn out when CRLLYYIPCGLF was run?
Answer: 0.703 ± 0.026

Question: CRRLCGWLFVCV was tested. Which protein stability index did it give?
Answer: 0.522 ± 0.025

Question: How did the protein stability index turn out when CSFELSVCLMLR was run?
Answer: 0.07758 ± 0.00064

Question: How did the protein stability index turn out when CSLRLCVRGAIV was run?
Answer: 0.702 ± 0.021

Question: How did the protein stability index turn out when CSSSNRRRYFVL was run?
Answer: 0.706 ± 0.027

Question: For CVARWPRPAGSS, which protein stability index is on record?
Answer: 0.735 ± 0.047

Question: How did the protein stability index turn out when CVFFPFLGVCYV was run?
Answer: 0.43047 ± 8.6e-05

Question: CVGRPIALAVRT was tested. Which protein stability index did it give?
Answer: 0.519 ± 0.048

Question: For CVLLRPGFLVLV, which protein stability index is on record?
Answer: 0.148 ± 0.011

Question: For CVYGILLLVDVR, which protein stability index is on record?
Answer: 0.0547 ± 0.039

Question: For CWDNTLKTMRQM, which protein stability index is on record?
Answer: 0.732 ± 0.022

Question: How did the protein stability index turn out when CWLFCACFVRLV was run?
Answer: 0.154 ± 0.0052

Question: CYFLFFLSYSLE was tested. Which protein stability index did it give?
Answer: 0.343 ± 0.045

Question: Which protein stability index does the source give for CYTGYMYKLLVG here?
Answer: 0.547 ± 0.01

Question: DFHLPWPVALVW was tested. Which protein stability index did it give?
Answer: 0.144 ± 0.016

Question: DFIVVIRFIQII was tested. Which protein stability index did it give?
Answer: 0.376 ± 0.009

Question: DFVYFPPIPVSS was tested. Which protein stability index did it give?
Answer: 0.352 ± 0.039

Question: With DISWVFVLLIFF as the sequence, how does the protein stability index read?
Answer: 0.402 ± 0.012

Question: DMWYLLWRVCYI was tested. Which protein stability index did it give?
Answer: 0.549 ± 0.056

Question: EGALSGGGKTSG was tested. Which protein stability index did it give?
Answer: 0.719 ± 0.019

Question: With EKIIVAVLFVVP as the sequence, how does the protein stability index read?
Answer: 0.482 ± 0.054

Question: For ENKGGNQKRRKK, which protein stability index is on record?
Answer: 0.743 ± 0.056

Question: EQMRRYILVSYV was tested. Which protein stability index did it give?
Answer: 0.609 ± 0.025

Question: For ERFRLYFRPGIF, which protein stability index is on record?
Answer: 0.7213 ± 0.00075

Question: ESCWVSRVGVCR was tested. Which protein stability index did it give?
Answer: 0.731 ± 0.038

Question: How did the protein stability index turn out when EVTRMLRVVREI was run?
Answer: 0.761 ± 0.032

Question: Which protein stability index does the source give for EWLITLRKCGVA here?
Answer: 0.613 ± 0.011

Question: Which protein stability index does the source give for EWRPYKRNKQSS here?
Answer: 0.759 ± 0.053

Question: With EWVGIFRGVSVF as the sequence, how does the protein stability index read?
Answer: 0.293 ± 0.0067

Question: FAKRVARVAREH was tested. Which protein stability index did it give?
Answer: 0.725 ± 0.018

Question: Which protein stability index does the source give for FALFLFFGPLIV here?
Answer: 0.486 ± 0.012

Question: For FASFLFFCYIIF, which protein stability index is on record?
Answer: 0.118 ± 0.0078

Question: Which protein stability index does the source give for FCCFFPFLWRVF here?
Answer: 0.609 ± 0.034

Question: For FCFYLLFLGFTR, which protein stability index is on record?
Answer: 0.512 ± 0.042

Question: With FCLFFFPSLFFF as the sequence, how does the protein stability index read?
Answer: 0.538 ± 0.024

Question: For FCRLCYLLLFCC, which protein stability index is on record?
Answer: 0.414 ± 0.012

Question: How did the protein stability index turn out when FELVWLCIIGAL was run?
Answer: 0.507 ± 0.031

Question: For FFCFFWLFHWFG, which protein stability index is on record?
Answer: 0.566 ± 0.022

Question: With FFCSLIISRFLL as the sequence, how does the protein stability index read?
Answer: 0.608 ± 0.014
